# Source: the RNAGym collection of RNA variant scans (doi:10.7554/elife.80360)
# B1: Hairpin Ribozyme (parent)
# chain: GUCCUCUUUCACGUGCGCGUGAAAGAGAGAAGUGAACCAGAGAAACACACGUUGUGGUAUAUUACCUGGUA
# Variants of: B1
# Assay: self-cleavage, relative activity (ratio to wild type); higher = more cleavage; co-transcriptional
row,Variant,self-cleavage
1,U5G A41C,0.571
2,U5G A41U,0.607
3,U5C A36G,0.502
4,U5C A36C,0.576
5,C4U A22U,0.362
6,U5G G57A,0.127
7,U5G G57U,0.163
8,C4U A39U,0.188
9,C6A A30C,0.221
10,C4G U60A,0.105
11,C4G U60G,0.147
12,U5G A35C,0.254
13,U5G A35G,0.36
14,C4U G19A,0.327
15,C4U G19C,0.219
16,U5G G54C,0.212
17,U5G G54A,0.204
18,C4U,0.371
19,C4U A45C,0.122
20,C4U A45G,0.199
21,U5G A36C,0.38
22,C4U G54A,0.166
23,C4U G54C,0.364
24,C4U A49C,0.259

row,Variant,self-cleavage
1,C4U A49U,0.128
2,C6A C48U,0.158
3,C4U A59C,0.126
4,U5G A24G,0.331
5,U5A G51A,0.393
6,U5C G42C,0.327
7,U5C G42U,0.164
8,U5C G29A,0.106
9,U5C A26U,0.505
10,U5A C48G,0.0819
11,U5G A49U,0.127
12,C4G G54U,0.228
13,U5G C46A,0.195
14,C4G U55G,0.113
15,U5G C48U,0.196
16,U5C A44C,0.0386
17,C4G G25C,0.157
18,U5A C16U,0.475
19,U5A C16G,0.231
20,U5A C16A,0.281
21,U5A U8G,0.261
22,U5A U8C,0.141
23,U5A U8A,0.285
24,C4U U52G,0.209

row,Variant,self-cleavage
1,C4U U52C,0.481
2,U5C A43G,0.201
3,C4U A41G,0.299
4,C6A A35C,0.695
5,C6A A35G,0.619
6,C6A A35U,0.428
7,U5C A61G,0.176
8,U5C A61C,0.128
9,U5C A49U,0.143
10,U5G C66A,0.0473
11,C4U C66A,0.182
12,C4U C66G,0.217
13,U5A U7G,0.253
14,U5G G51U,0.534
15,C4U U67A,0.121
16,C4U G42A,0.27
17,U5C U70C,0.277
18,C4G G27C,0.653
19,C4G C65U,0.224
20,C4G C65G,0.178
21,C4G C65A,0.206
22,U5A C6A,0.337
23,U5A U33C,0.0952
24,U5C U55G,0.351

row,Variant,self-cleavage
1,U5G A30G,0.144
2,U5A U55C,0.157
3,U5C C66G,0.113
4,U5C C66U,0.38
5,C4U G56A,0.161
6,C6A C38U,0.354
7,C6A C38G,0.149
8,C6A C10G,0.377
9,U5A A59U,0.153
10,U5A G57U,0.102
11,U5A G40U,0.101
12,C4U A30G,0.128
13,C4U A30C,0.104
14,C4U A35U,0.199
15,U5C G27U,0.0794
16,U5C G27C,0.15
17,U5G G25A,0.225
18,C6A C16A,0.561
19,C4G G68C,0.134
20,C4G G68U,0.0845
21,U5C U58A,0.21
22,U5C U58C,0.496
23,C4G G40C,0.164
24,U5C U67C,0.144

row,Variant,self-cleavage
1,C4G U33G,0.13
2,C4G U33C,0.0651
3,C4G U9A,0.162
4,C4G G29C,0.0848
5,C4G G32A,0.154
6,U5G G40U,0.13
7,U5G G40C,0.14
8,C4U U60A,0.199
9,C4U U60C,0.48
10,U5A C50U,0.291
11,U5A U60A,0.477
12,U5A U60C,0.709
13,U5C C6G,0.138
14,U5C A11C,0.764
15,U5G G15A,0.407
16,U5C C65A,0.511
17,U5C C18A,0.699
18,U5C C18G,0.251
19,C4U C12U,0.357
20,U5A G15A,0.388
21,U5A G15U,0.495
22,C6A A28G,0.811
23,C6A A28U,0.365
24,U5C A41G,0.569

row,Variant,self-cleavage
1,U5C A41U,1.06
2,U5G G34U,1.08
3,U5A A45U,0.141
4,U5A A45G,0.0727
5,C4U C10A,0.177
6,U5A A11C,0.281
7,U5G A26G,0.286
8,U5G A26U,0.51
9,C4U C46G,0.121
10,C4U C46A,0.164
11,C6A A24G,0.45
12,U5C U14C,0.557
13,U5C U14G,0.385
14,U5C G69A,0.158
15,U5A A24C,0.314
16,U5A A24G,0.381
17,U5C A39G,0.192
18,C6A A45G,0.0698
19,U5A A64U,0.133
20,U5A A64C,0.151
21,U5C G54A,0.467
22,U5C G54C,0.169
23,U5C G54U,0.492
24,C4U A44G,0.269

row,Variant,self-cleavage
1,U5G A31U,0.0772
2,C6A C50A,0.223
3,U5A G13C,0.19
4,U5A G13U,0.302
5,U5A C10U,0.333
6,U5A C37G,0.18
7,U5G A61U,0.108
8,U5G A61C,0.112
9,C4U U58A,0.172
10,C4U U62C,0.16
11,C4U U62G,0.181
12,U5G U52G,0.255
13,U5A C66G,0.176
14,U5A C66U,0.153
15,C4U C37A,0.158
16,C4U A28G,0.458
17,C4U U7A,0.296
18,C4U C65U,0.175
19,U5G C65G,0.0535
20,U5A U62G,0.11
21,C4U U55A,0.0732
22,U5A A43C,0.113
23,U5A A43G,0.0784
